In the supplement of paper PMC11865577:

Assays:
Assay in all cases: pull-down binding Z-score (relative to library population); higher = stronger binding
[1] = tested on: TO-3-N3 (biotin conjugate); conditions: RNA library: Library-2
In short: (§1)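 Biotin-conjugated small molecule (100 pmol) on streptavidin beads was incubated with 1 μg of heat-folded Cy5- or Cy3-end-labelled RNA library in phosphate/NaCl/KCl buffer at 25 °C for 60 min. Following three washes, RNA was eluted with hot SDS and hybridised at 55.5 °C for 20 h to a DNA barcode microarray. The binding value is a Z-score computed from the library mean and standard deviation, after subtraction of beads without compound and averaging of barcoded replicate probes with the highest and lowest excluded.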

[2] = tested on: TO-3-N3-2 (biotin conjugate); conditions: RNA library: Library-2
In short: as §1

[3] = tested on: TO-N3 (biotin conjugate); conditions: RNA library: Library-2
In short: as §1

[4] = tested on: G-clamp-N3 (biotin conjugate); conditions: RNA library: Library-1 (pre-miRNA loops + repeats)
In short: as §1

[5] = tested on: TO-N3-2 (biotin conjugate); conditions: RNA library: Library-2
In short: as §1

Sequence | pull-down binding Z-score [1] | pull-down binding Z-score [2] | pull-down binding Z-score [3] | pull-down binding Z-score [4] | pull-down binding Z-score [5]
CUGAGGACUGAGGCUCACCUUG [hsa-mir-6772] | -0.057 | 0.0747 | 0.412 | 0.0792 | 0.813
AUCAUAAUAAAGGUGUCAUGAU [hsa-mir-3682] | -0.489 | -0.169 | -0.879 | -0.55 | -0.694
UGCUUUGUUAGAAACAAAAAGCA [hsa-mir-4679-1] | 0.632 | 0.248 | 0.447 | 0.865 | -0.462
AAAACUUUCAUCCAAGUCAUU [hsa-mir-378d-2] | 0.382 | -0.238 | 0.164 | -0.902 | -0.609
UGUUCAUGUCUCUCUGUGCACAGGGGACGAGAGUCA [hsa-mir-4420] | -0.612 | -0.232 | -0.35 | 0.39 | 0.762
GCUGAAACACAGUUGGUUUGUGUACACUGGC [hsa-mir-24-2] | -0.415 | -0.521 | -0.193 | 0.212 | -0.00258
AAUUUUGAUGAGUAUCAUAGGAGAAAAAUU [hsa-mir-363] | -0.302 | 0.27 | -0.184 | 1.49 | 0.542
AAUUGGCUUUUACAAAAGACCAACU [hsa-mir-4798] | 0.117 | -0.259 | 0.0359 | 0.914 | -0.6
UUUACUUUUGGCCUCAAGUCAUUGCAGUAAA [hsa-mir-4796] | -0.696 | -0.635 | -0.832 | -0.453 | -1.18
CCCACGUCGCAUGCGCCCCGGGAAAGCGUGGG [hsa-mir-3180-1_3180-3_3180-2] | 0.614 | -0.158 | 0.682 | 1.94 | 0.515
AAGUCCGGCUCCAGAACCUGGACACCGCUCAG [hsa-mir-4638] | 0.52 | 0.379 | 0.898 | -1.24 | 1.09
GAGACUUUGUGAUUUGUCUCCAAAGCCUC [hsa-mir-6862-2_6862-1] | 0.202 | -0.468 | 0.0513 | -1.06 | -0.157
GUGAGCGCAGGUCUUUGGCAC [hsa-mir-4450] | 0.104 | 0.39 | 0.339 | 2.36 | 0.729
CAGCCUGUUGUCAAGGCUG [hsa-mir-3130-1] | 0.535 | 0.129 | 0.712 | -0.13 | -0.199
CUGAGAGGUUUACAUUUCUC [hsa-mir-128-1] | -0.664 | -0.672 | -0.648 | -1.07 | -0.0343
CCUGUCCUAUGACAAACAUGGCAGG [hsa-mir-3927] | -0.564 | -0.497 | -0.547 | -0.521 | -0.673
UCUUAGACUAUUACAAGA [hsa-mir-3672] | 0.922 | 0.0159 | 0.614 | -0.633 | -0.526
ACCAAAAAUGAUAUGGGU [hsa-mir-7977] | -0.344 | 0.11 | -0.532 | 1.5 | -0.381
AAGACACUAUCUUACAACAACAGGGCUCUU [hsa-mir-550b-1] | 1.17 | 0.281 | 1.01 | 0.13 | 0.298
CAGGUAGUUUUGGCAUGACUCUACUG [hsa-mir-20b] | 0.0561 | -0.229 | 0.556 | -0.719 | 1.44
CUGUGGUCUAACCUUUCCCAUCU [hsa-mir-6828] | -0.163 | 0.125 | 0.169 | -1.45 | 0.334
GCGGGAGCCAGGCCGC [hsa-mir-3185] | -0.123 | 0.0586 | -0.0208 | 3.26 | 0.896
CUUGAUUUAAAUGUCCAUACAAUUAAG [hsa-mir-124-1] | -0.0597 | -0.142 | -0.179 | -0.57 | -0.133
UCUGCUUUAUUUCAUCAAAGCAGA [hsa-mir-4773-1] | -0.916 | -0.676 | -1.36 | -0.484 | -1.41
AGAACAUUCGUUCACUUUCCU [hsa-mir-6747] | -0.352 | -0.29 | -0.404 | -1.1 | -0.376

Sequence | pull-down binding Z-score [1] | pull-down binding Z-score [2] | pull-down binding Z-score [3] | pull-down binding Z-score [4] | pull-down binding Z-score [5]
GGUUCCCACGCCGCGGCAACC [hsa-mir-6776] | 0.0159 | -0.135 | 0.217 | -1.36 | 0.293
CCAAGUCUGACCACCUGAGGAAUGCCUGG [hsa-mir-1269a] | -0.498 | -0.335 | -0.288 | -0.858 | 0.719
UUCCUUGUCUGUAGCCAUGUCUAUGGGCUCUUGAG [hsa-mir-571] | 0.494 | -0.0353 | 0.461 | -0.205 | -0.131
GCAUCCAGACAGCGGGCGAAUGC [hsa-mir-6836] | -0.0821 | -0.113 | 0.33 | 0.0557 | 1.13
CUGAUUCAGAAAGAUCAUCGG [hsa-mir-127] | -0.444 | 0.0704 | -0.346 | -0.634 | 0.226
UGAGGUUUACUAUGGAACCUCA [hsa-mir-4465] | -0.566 | -0.526 | -0.958 | 0.714 | -1.53
CCCACUUCCUGGA [hsa-mir-4260] | -0.513 | -0.529 | -0.494 | -0.562 | -0.0316
GUCAGGAGUGGCUUUCCUGAC [hsa-mir-4462] | 0.414 | -0.271 | 0.279 | -0.232 | -0.397
CAAUGAAGACAUGAAGACCCAAUGUCUUCAUUG [hsa-mir-4529] | -0.88 | -0.347 | -1.17 | -0.114 | -1.1
CAGCUUGCUCUGCUUU [hsa-mir-4303] | -0.387 | 0.0132 | -0.189 | 0.072 | 0.0746
UAUAUGCUUUUUAAAUGGGGCACAGA [hsa-mir-5586] | -0.275 | 0.0323 | -0.26 | 2 | -0.177
AGAUGAGGGUGUCGGAUCAACU [hsa-mir-193a] | 0.135 | 0.248 | 0.579 | 1.51 | 0.801
UGUGGCCUGGGGGUUGAGGACCCCUGCUCUA [hsa-mir-645] | 0.874 | 0.303 | 1.74 | 1.32 | 2.75
UGGGAGUGAUCCCAACAGCUGAGCUCCCU [hsa-mir-7106] | 0.772 | -0.0877 | 0.756 | 0.114 | 0.529
CAGGCUGGUCUCAAACUCCUGGUCUG [hsa-mir-1285-1] | -0.202 | -0.352 | -0.217 | -0.288 | -0.123
UCUGUUGCUUGAAAGAAGAGA [hsa-mir-526a-1] | 0.85 | -0.154 | 0.922 | 1.67 | 0.215
CUCUGAUGUAAUUAGGU [hsa-mir-563] | -0.504 | -0.321 | -0.642 | -1.2 | -0.397
UGCUUUACUUUUAAUGGCA [hsa-mir-548k] | -0.819 | -0.358 | -1.15 | -0.352 | -1.34
GUUAGUUGUGGACACAUACUAAC [hsa-mir-3912] | -0.764 | -0.735 | -1.19 | -0.0574 | -1.25
GAGCCCUUGCACACCACCAGCCUC [hsa-mir-6845] | -0.0477 | 0.134 | 0.375 | -1.73 | 0.822
CAGAGUUCCCUUCUUGUGAGCUCAG [hsa-mir-6733] | -0.518 | -0.714 | -0.415 | -0.936 | 0.42
GUUGUUGUCUUACUGCGCUCAACAAC [hsa-mir-7-2] | 0.0252 | -0.285 | -0.0893 | 0.767 | -0.241
CGUGCACGUACCUGUCACAUGUGUACG [hsa-mir-3939] | -0.72 | -0.599 | -0.867 | -0.021 | -0.599
CUGUGCAGGGCCAACUGUGCACAC [hsa-mir-3681] | 0.827 | 0.227 | 1.15 | 0.785 | 1.14
ACAGAGUGAGAUGGUCUUGUUUUGU [hsa-mir-5684] | -0.542 | -0.409 | -0.673 | 0.00683 | -0.546

Sequence | pull-down binding Z-score [1] | pull-down binding Z-score [2] | pull-down binding Z-score [3] | pull-down binding Z-score [4] | pull-down binding Z-score [5]
AAAUCCCGUUAAUAAGUAAGAGGAUUU [hsa-mir-2113] | 0.503 | 0.143 | 0.817 | 0.525 | 0.758
UUGCCCAA [hsa-mir-548bb] | -0.0547 | -0.317 | -0.211 | 0.764 | -0.332
GCUGAACCCCUGCCCCUGGAGCCCCCAGCAGGGCCCUC [hsa-mir-7162] | 0.665 | 0.612 | 1.34 | -1.32 | 1.85
CACAAAUAUGGCUCUUUGUG [hsa-mir-4474] | -0.637 | -0.469 | -0.809 | -0.738 | -0.657
CGGUCCCAUAUUGAACUCG [hsa-mir-4444-1_4444-2] | -0.626 | -0.418 | -0.4 | -1.03 | -0.109
UCCCCAGAAGCUGAGGAUUAGGGGA [hsa-mir-6503] | 0.0937 | -0.131 | -0.0188 | 1.93 | -0.108
GUGGGUCAAGUUUAGAGAUGCACCAAC [hsa-mir-490] | 1.32 | 0.519 | 1.43 | 0.572 | 1.5
GCUUUAUGUCCUGACCCAGCUAAAGC [hsa-mir-22] | 0.3 | -0.246 | 0.112 | -0.155 | -0.0465
CACAAUAUUUAGGACAACAAUAUU [hsa-mir-1302-6] | -0.282 | 0.226 | -0.362 | -0.807 | -0.518
AACAUACAUUUGUCUUGGUGUGUU [hsa-mir-4684] | -1.01 | -0.744 | -1.44 | 3.35 | -1.35
GUGUUUUCUCCUUUAGAGAGAGCUG [hsa-mir-4299] | -0.542 | -0.23 | -0.257 | 0.765 | 0.309
GGAUCAUGUUUGCCCCCGUGGACAGCUCUCUGGUGUGCUCCUCCUGCCAUCCUGCCCACCCCUGCAUAAUGCUGCUUC [hsa-mir-6809] | 0.306 | 0.384 | 1.02 | -1.25 | 1.5
GCCACAUGAGCUGGGCCUCGUGGGC [hsa-mir-770] | 0.237 | -0.342 | 0.189 | -0.657 | 0.565
CCAAAUCAGAAAAGGAUUUGG [hsa-mir-4520-1] | -0.497 | -0.242 | -0.698 | 4.83 | -0.892
AGUUCGCUUUUAUUAAUGACGAAUA [hsa-mir-410] | -0.624 | -0.0101 | -0.628 | -0.994 | -0.121
GACGUGAAGGGACCACAUCCCGCUUCAUGUC [hsa-mir-4697] | 0.541 | -0.362 | 0.374 | -0.0598 | 0.229
CCUUAGCACUAGCAGGAGG [hsa-mir-612] | -0.588 | -0.482 | -0.556 | 0.101 | 0.00744
UAAGUGUCCUAGCACUUA [hsa-mir-374b] | 0.251 | -0.524 | -0.0395 | 0.214 | -0.647
AUGCCUGAGAAUAUAUGAAGGAGGCU [hsa-mir-204] | 0.0552 | 0.374 | 0.525 | 2.31 | 0.965
CCCAGAGAAAGCCUGAACGUUGGG [hsa-mir-585] | -0.148 | 0.0232 | 0.119 | -0.188 | 0.386
GCAGAUAGUGGUCCUCUCCGUGCUACCGC [hsa-mir-106b] | -0.0735 | -0.0832 | 0.316 | -0.198 | 1.16
CAGGUGUUCUUAAAAUCACCUG [hsa-mir-875] | -0.63 | -0.143 | -0.806 | -0.405 | -1.05
AUGCCCCAGGUGACGUGCUGGGCU [hsa-mir-4526] | 0.205 | 0.0558 | 0.495 | -0.192 | 0.888
CUACAUCGUGGAAGCCAGCACCAUGCAG [hsa-mir-455] | 0.731 | -0.206 | 0.826 | 0.169 | 0.773
AGCCAAAAUCACCAGGGA [hsa-mir-4534] | -0.0499 | 0.118 | 0.259 | 0.0802 | 0.563
